Data: patent US20210253718A1, “FRIZZLED5 PROTEIN-BINDING AGENTS” (Modmab Therapeutics Corporation, priority 2016, published 2021)
Where a chain is given by its changes, count along the chain named.

T1: FZD9 CRD (Homo sapiens, UniProt O00144)
T1 construct: G35-A161; GPI anchor signal (C); expressed in transfected cells; host or cells: CHO cells, lentiviral pLenti-puro
T1 sequence (O00144 35-161): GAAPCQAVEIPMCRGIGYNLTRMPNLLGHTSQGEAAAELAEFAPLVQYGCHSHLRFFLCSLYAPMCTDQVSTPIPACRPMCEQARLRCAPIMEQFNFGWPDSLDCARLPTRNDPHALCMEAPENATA

B1: Fab-2906: anti-FZD5 Fab with antibody variable region Fv-2906; CDR SEQ ID NOs: 35, 36, 45, 84, 121, 158 (antibody, V domains shown)
VH: EVQLVESGGGLVQPGGSLRLSCAASGFNFSSSSIHWVRQAPGKGLEWVAYISSSYGYTYYADSVKGRFTISADTSKNTAYLQMNSLRAEDTAVYYCARTVRGSKKPYFSGWAMDYWGQGTLVTVSS
VL: DIQMTQSPSSLSASVGDRVTITCRASQSVSSAVAWYQQKPGKAPKLLIYSASSLYSGVPSRFSGSRSGTDFTLTISSLQPEDFATYYCQQWSWGFLITFGQGTKVEIK
B2: Fab-2912: anti-FZD5 Fab with antibody variable region Fv-2912; CDR SEQ ID NOs: 35, 36, 51, 90, 127, 164 (antibody, V domains shown)
VH: B1 VH with F29I, S31Y, S33Y, Y50S, Y55S, Y59S
VL: B1 VL with W91F, S92Y, W93F, G94P, F95Y
B3: Fab-2902: anti-FZD5 Fab with antibody variable region Fv-2902; CDR SEQ ID NOs: 35, 36, 41, 80, 117, 153 (antibody, V domains shown)
VH: EVQLVESGGGLVQPGGSLRLSCAASGFNISYYYIHWVRQAPGKGLEWVASISSSSSSTSYADSVKGRFTISADTSKNTAYLQMNSLRAEDTAVYYCARGALDYWGQGTLVTVSS
VL: DIQMTQSPSSLSASVGDRVTITCRASQSVSSAVAWYQQKPGKAPKLLIYSASSLYSGVPSRFSGSRSGTDFTLTISSLQPEDFATYYCQQWYAFGALITFGQGTKVEIK
B4: Fab-2916: anti-FZD5 Fab with antibody variable region Fv-2916; CDR SEQ ID NOs: 35, 36, 55, 94, 131, 167 (antibody, V domains shown)
VH: EVQLVESGGGLVQPGGSLRLSCAASGFNISYSSIHWVRQAPGKGLEWVASIYPSYSYTYYADSVKGRFTISADTSKNTAYLQMNSLRAEDTAVYYCARYGYYGMDYWGQGTLVTVSS
VL: B3 VL with A93H, F94Y, G95P, A96Y
B5: Fab-2914: anti-FZD5 Fab with antibody variable region Fv-2914; CDR SEQ ID NOs: 35, 36, 53, 92, 129, 162 (antibody, V domains shown)
VH: B3 VH with S30Y, Y32S, I34M, S52Y, S53P, L101M
VL: B1 VL with S92Y, W93Y, F95S
B6: Fab-2903: anti-FZD5 Fab with antibody variable region Fv-2903; CDR SEQ ID NOs: 35, 36, 42, 81, 118, 155 (antibody, V domains shown)
VH: B3 VH with I29L, S52Y, S53P, S54Y, S57Y, L101I
VL: B3 VL with Y92G, A93G, F94G, G95S, A96S, I98F

Key:
[1] = target: T2, FZD1 CRD (Homo sapiens, UniProt Q9UP38); assay: Immunofluorescence of anti-FZD5 Fab binding to CHO cells overexpressing Frizzled CRD; design: key: −: no binding; +: very weak binder; ++: weak binder; +++: good binder; ++++: very good binder
T2 construct: D112-P238; GPI anchor signal (C); expressed in transfected cells; host or cells: CHO cells, lentiviral pLenti-puro
In short: (§1)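 CHO cell lines each displaying a myc-tagged Frizzled CRD on the plasma membrane via GPI anchor. Recombinant anti-FZD5 Fab binding detected by immunofluorescence and flow cytometry.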

[2] = target: T3, FZD2 CRD (Homo sapiens, UniProt Q14332); assay: as above; design: key: −: no binding; +: very weak binder; ++: weak binder; +++: good binder; ++++: very good binder
T3 construct: D35-P161; GPI anchor signal (C); expressed in transfected cells; host or cells: CHO cells, lentiviral pLenti-puro
In short: as §1

[3] = target: T4, FZD7 CRD (Homo sapiens, UniProt O75084); assay: as above; design: key: −: no binding; +: very weak binder; ++: weak binder; +++: good binder; ++++: very good binder
T4 construct: D45-S169; GPI anchor signal (C); expressed in transfected cells; host or cells: CHO cells, lentiviral pLenti-puro
In short: as §1

[4] = target: T1, FZD9 CRD; assay: as above; design: key: −: no binding; +: very weak binder; ++: weak binder; +++: good binder; ++++: very good binder
In short: as §1

[5] = system: ASPC-1 cells; assay: Effect of anti-FZD5 Fabs on proliferation of pancreatic cancer cell lines (percent growth inhibition); assay type: cell-based, human; conditions: Fab 10 μg/ml
Procedure: (§2) The effect of presently disclosed anti-FZD5 Fabs on proliferation of RNF43 loss-of-function mutant pancreatic cancer cell lines HPAFII, PATU8988S and ASPC-1; and on pancreatic cancer cell line RWP1, was tested at […] and 10 μg/ml.

[6] = system: HPAFII cells; assay: as above; assay type: cell-based, human; conditions: for percent growth inhibition, HPAFII 2 μg/ml: Fab 2 μg/ml; for percent growth inhibition, HPAFII 10 μg/ml: Fab 10 μg/ml
Procedure: as §2

[7] = system: PATU8988S cells; assay: as above; assay type: cell-based, human; conditions: Fab 10 μg/ml
Procedure: as §2

[8] = system: RWP1 cells; assay: as above; assay type: cell-based, human; conditions: Fab 10 μg/ml
Procedure: as §2

[9] = system: CHO cells not expressing Frizzled CRD; assay: Flow cytometry of anti-FZD5 Fab binding to CHO cells not expressing Frizzled CRD (background)
From the text: The binding of anti-FZD5 Fabs to cell surface-expressed Frizzled protein was further determined for each member of the Frizzled family via flow cytometry and immunofluorescence analysis of a panel of 10 CHO cell lines, each ectopically over-expressing the extracellular cysteine-rich domain (CRD) of a different Frizzled protein family member.

[10] = system: PATU8988S cells; assay: Effect of anti-FZD5 Fabs on proliferation of pancreatic cancer cell lines (percent growth inhibition); assay type: cell-based, human; conditions: Fab 2 μg/ml

Molecule	Immunofluorescence binding, Frizzled CRD overexpressed on CHO cells: FZD1 [1]	Immunofluorescence binding, Frizzled CRD overexpressed on CHO cells: FZD2 [2]	Immunofluorescence binding, Frizzled CRD overexpressed on CHO cells: FZD7 [3]	Immunofluorescence binding, Frizzled CRD overexpressed on CHO cells: FZD9 [4]	percent growth inhibition, ASPC-1 10 μg/ml [5] [%]	percent growth inhibition, HPAFII 2 μg/ml [6] [%]	percent growth inhibition, HPAFII 10 μg/ml [6] [%]	percent growth inhibition, PATU8988s 10 μg/ml [7] [%]	percent growth inhibition, RWP1 10 μg/ml [8] [%]	Median fluorescence, Frizzled CRD overexpressed on CHO cells: None [9]	percent growth inhibition, PATU8988s 2 μg/ml [10] [%]
B1	−	−	+	−	35.20	15.24	14.98	−30.04	5.47	3.89	−17.42
B2	+	+++	++++	−	1.76	7.76	−5.41	−25.71	27.25	4.49	1.11
B3	−	−	+	−	17.39	25.42	21.81	−32.61	31.22	4.66	−15.75
B4	++++	++++	++++	−	42.26	31.28	52.29	−19.08	30.61	4.22	−25.67
B5	++	+++	++++	−	38.30	−4.97	6.47	−26.59	78.98	4.37	−15.14
B6	+	−	++	−	14.86	−10.34	−10.98	−16.37	17.38	4.07	−22.81
